Test [1] concerns the target T1, human β-Klotho extracellular domain (aa1–992) fused with a 6 × His tag at the C-terminus (human, UniProt Q86Z14 1-992, biotin (EZ-Link Sulfo-NHS-LC-Biotin) in the bio-layer interferometry). Nature of the test: competition with FGF19 (AlphaScreen).
Test [2] deals with T1, human β-Klotho extracellular domain …. Nature of the test: competition with FGF21 (AlphaScreen).
Test [3] has the same target. Nature of the test: ELISA; solid-phase binding assay.
Test [4] has the same target. Description: BLI.
Test [5] shares this target. Description: AlphaScreen, competition with FGF19.
The target is the same in test [6]. Nature of the test: AlphaScreen, competition with FGF21.
For test [7] the target is unchanged. Description: AlphaScreen, biotinylated FGF.

T1 sequence (Q86Z14 53-992): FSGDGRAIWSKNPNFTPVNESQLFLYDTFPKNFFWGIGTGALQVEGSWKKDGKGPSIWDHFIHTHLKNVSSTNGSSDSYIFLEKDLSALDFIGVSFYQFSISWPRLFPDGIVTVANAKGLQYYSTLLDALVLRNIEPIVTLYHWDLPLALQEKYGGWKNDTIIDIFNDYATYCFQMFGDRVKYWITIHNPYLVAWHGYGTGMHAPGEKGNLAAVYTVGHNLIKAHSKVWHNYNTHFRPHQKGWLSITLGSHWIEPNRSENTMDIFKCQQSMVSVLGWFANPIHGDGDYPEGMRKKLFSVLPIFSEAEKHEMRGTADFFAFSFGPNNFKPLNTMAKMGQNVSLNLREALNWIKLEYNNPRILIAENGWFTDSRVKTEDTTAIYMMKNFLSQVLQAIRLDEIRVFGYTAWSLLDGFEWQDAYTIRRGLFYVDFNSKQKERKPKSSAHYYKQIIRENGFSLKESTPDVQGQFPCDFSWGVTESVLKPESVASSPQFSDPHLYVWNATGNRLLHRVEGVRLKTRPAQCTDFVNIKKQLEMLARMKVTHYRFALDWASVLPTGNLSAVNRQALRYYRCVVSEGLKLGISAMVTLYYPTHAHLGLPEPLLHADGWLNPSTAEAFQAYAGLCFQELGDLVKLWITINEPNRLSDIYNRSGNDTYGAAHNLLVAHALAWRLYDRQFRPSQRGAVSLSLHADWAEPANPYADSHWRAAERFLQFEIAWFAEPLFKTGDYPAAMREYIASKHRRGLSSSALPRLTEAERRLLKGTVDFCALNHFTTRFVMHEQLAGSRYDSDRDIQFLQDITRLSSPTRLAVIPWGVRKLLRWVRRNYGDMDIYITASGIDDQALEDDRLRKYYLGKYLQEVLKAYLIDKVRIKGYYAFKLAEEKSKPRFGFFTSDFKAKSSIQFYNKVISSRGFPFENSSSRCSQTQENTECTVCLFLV

B1: FGF21 183-209 203R-A (peptide)
chain: PQPPDVGSSDPLSMVGPSQGASPSYAS
Regarding B1, the IC50 in test [1] is 0.28 nM.

B2: FGF21 183-209 198G-A (peptide)
chain: PQPPDVGSSDPLSMVAPSQGRSPSYAS
As for B2, the IC50 in test [2] was determined as 6 nM; in test [1], 2.6 nM.

B3: FGF21 183-209 188V-A (peptide)
chain: PQPPDAGSSDPLSMVGPSQGRSPSYAS
Regarding B3, in test [1], the IC50 stood at 5.2 nM.

B4: FGF21 183-209 (peptide)
chain: PQPPDVGSSDPLSMVGPSQGRSPSYAS
For B4, the IC50 in test [2] was 2.1 nM; in test [1] it was 0.52 nM.

B5: FGF21 183-209 183P-A (peptide)
chain: AQPPDVGSSDPLSMVGPSQGRSPSYAS
In the case of B5, the IC50 was 4.5 nM in test [2] and 1 nM in test [1].

B6: mature human FGF21 polypeptide fused with the human Fc fragment at the N-terminus (Fc-FGF21), wild type (Fc fusion)
chain: HPIPDSSPLLQFGGQVRQRYLYTDDAQQTEAHLEIREDGTVGGAADQSPESLLQLKALKPGVIQILGVKTSRFLCQRPDGALYGSLHFDPEACSFRELLLEDGYNVYQSEAHGLPLHLPGNKSPHRDPAPRGPARFLPLPGLPPALPEPPGILAPQPPDVGSSDPLSMVGPSQGRSPSYAS
Take B6: the midpoint of the response in test [3], the EC50, lay at 0.6 nM. In test [4], this molecule returned a Kd of 1.36 nM.

B7: mature human FGF21 (ligand)
chain: B6 chain
modifications: biotin (EZ-Link Sulfo-NHS-LC-Biotin) in the solid-phase binding assay; biotinylated as the labelled ligand in AlphaScreen
As to B7, the IC50 in test [5] came to 5.7 nM; in test [6] it was 23.1 nM. The molecule also showed an EC50 in test [7] of 2.81 nM. Also, in test [4], the affinity, expressed as Kd, was 5.17 nM.

B8: FGF19 C-terminal peptide, WT FGF19^185–216 (peptide)
peptide: SDMFSSPLETDSMDPFGLVTGLEAVRSPSFEK
As to B8, the IC50 came out at 46.7 nM in test [5] and 346 nM in test [6].

B9: FGF21 183-209 193P-A (peptide)
chain: PQPPDVGSSDALSMVGPSQGRSPSYAS
In turn, B9 registered an IC50 in test [1] of 5.5 nM.

These data come from paper PMC6056499 (2018).
